Test results published in patent publication US20160326240A1.
Positions count from the first letter of the chain named.

T1: Rat RGMa-His (rat) (UniProt D4A188)
T1 sequence: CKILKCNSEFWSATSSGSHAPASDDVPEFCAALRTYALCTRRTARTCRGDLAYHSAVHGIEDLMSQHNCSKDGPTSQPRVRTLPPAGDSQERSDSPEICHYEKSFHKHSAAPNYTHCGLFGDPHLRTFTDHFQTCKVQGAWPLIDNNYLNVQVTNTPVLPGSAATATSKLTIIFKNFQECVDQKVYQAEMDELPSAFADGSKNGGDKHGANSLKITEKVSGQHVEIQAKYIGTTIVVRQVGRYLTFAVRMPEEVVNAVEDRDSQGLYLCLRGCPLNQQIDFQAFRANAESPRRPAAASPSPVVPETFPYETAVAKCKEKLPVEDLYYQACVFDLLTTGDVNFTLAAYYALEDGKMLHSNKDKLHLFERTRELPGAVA

B1: AE12-1 (antibody, V domains shown)
VH: EVQLVQSGAEVKKPGASVKVSCKASGYTFTSHGISWVRQAPGQGLDWMGWISPYSGNTNYAQKLQGRVTMTTDTSTSTAYMELSSLRSEDTAVYYCARVGSGPYYYMDVWGQGTLVTVSS
VL: QSALTQPRSVSGSPGQSVTISCTGTSSSVGDSIYVSWYQQHPGKAPKLMLYDVTKRPSGVPDRFSGSKSGNTASLTISGLQAEDEADYYCCSYAGTDTLFGGGTKVTVL
B2: AE12-1-F (antibody, V domains shown)
VH: B1 VH
VL: B1 VL with C91F
B3: AE12-1-V (antibody, V domains shown)
VH: B1 VH
VL: B1 VL with C91V
B4: AE12-1-Y (antibody, V domains shown)
VH: B1 VH
VL: B1 VL with C91Y
B5: AE12-1-I (antibody, V domains shown)
VH: B1 VH
VL: B1 VL with C91I
B6: AE12-1-L (antibody, V domains shown)
VH: B1 VH
VL: B1 VL with C91L
B7: AE12-1-K (antibody, V domains shown)
VH: B1 VH
VL: B1 VL with C91K
B8: AE12-1-H (antibody, V domains shown)
VH: B1 VH
VL: B1 VL with C91H

Target: T1, Rat RGMa-His (rat)
Experiment: BIAcore

| Kd [µM] | koff [s⁻¹] | kon [M⁻¹ s⁻¹] | Binder |
| --- | --- | --- | --- |
| 0.019 | 0.00048 | 26000 | B1 |
| 0.0052 | 0.00014 | 26000 | B2 |
| 0.015 | 0.00032 | 220000 | B3 |
| 0.005 | 6.9e-05 | 14000 | B4 |
| 0.012 | 0.00032 | 28000 | B5 |
| 0.012 | 0.00039 | 32000 | B6 |
| 0.017 | 0.00028 | 16000 | B7 |
| 0.0086 | 0.00025 | 29000 | B8 |
